Measurements published in PMC3210727.
Several values for one entry are separate records, joined by “and”; a condition that tells them apart may be missing. Identical values can stand only once.

Biological target: H3N2 A/Hong Kong/1/1968 HA [change] (influenza A virus A/Hong Kong/1/1968 (H3N2))

human monoclonal antibody CR8020 was tested, and the Kd was 2 nM and 3 nM.
